Series [1] deals with T1, Aminopeptidase B (His-rAp-B) (Rattus norvegicus, UniProt O09175).
T1 construct: gene Rnpep; His-tagged full-length rat Ap-B (673 residues incl. His-tag/Factor Xa site; 650-residue Ap-B) from E. coli
T1 sequence (O09175 1-650): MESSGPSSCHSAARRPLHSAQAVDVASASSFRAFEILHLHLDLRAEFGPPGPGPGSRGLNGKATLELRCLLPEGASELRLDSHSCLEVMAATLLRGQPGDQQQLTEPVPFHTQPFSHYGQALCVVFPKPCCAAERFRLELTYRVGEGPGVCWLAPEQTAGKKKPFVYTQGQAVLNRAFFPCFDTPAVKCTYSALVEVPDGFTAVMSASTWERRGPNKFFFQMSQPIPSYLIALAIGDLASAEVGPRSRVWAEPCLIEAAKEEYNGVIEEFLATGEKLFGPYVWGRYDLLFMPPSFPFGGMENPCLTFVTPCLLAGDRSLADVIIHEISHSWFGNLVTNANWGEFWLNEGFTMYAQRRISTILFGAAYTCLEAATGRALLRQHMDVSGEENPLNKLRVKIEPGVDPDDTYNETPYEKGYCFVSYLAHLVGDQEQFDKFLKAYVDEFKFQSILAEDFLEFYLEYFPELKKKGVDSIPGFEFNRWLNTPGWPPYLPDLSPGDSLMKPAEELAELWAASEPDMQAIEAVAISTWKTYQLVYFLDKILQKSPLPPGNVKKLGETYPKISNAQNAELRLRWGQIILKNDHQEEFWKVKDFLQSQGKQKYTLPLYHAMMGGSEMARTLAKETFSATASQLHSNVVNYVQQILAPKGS
The series can be described thus: L-Arg-β-NA hydrolysis assay with recombinant enzyme; Ki and percent inhibition ([…] at […]). Type of series: biochemical.

Series [2] addresses T1, Aminopeptidase B (His-rAp-B). The description is as above. Type of series: biochemical. The source holds these as a separate data set.
The target is the same in series [3]. The description is as above. Type of series: biochemical. This is another data set of the same source.
Substrate in series [4]: NCCCC[C@H](N)C(=O)Nc1ccc2ccccc2c1
Put plainly: purified protein. Type of series: biochemical, Rattus norvegicus. Particulars: Zn2+.

Substrate in series [5]: N=C(N)NCCC[C@H](N)C(=O)Nc1ccc2ccccc2c1
The series can be described thus: purified protein. The class given is biochemical, Rattus norvegicus. The following applies: Zn2+.

Consider four molecules from paper PMC2241622, “Aminopeptidase B, a glucagon-processing enzyme: site directed mutagenesis of the Zn^2+-binding motif and molecular modelling” (BMC Biochemistry, 2007).

Read-outs that look alike come from different tables or passages of the source.

The Ki is the dissociation constant of the complex between target and ligand, obtained from inhibition or displacement. Consider `N=C(N)NCCC[C@H](N)C(=O)C[C@@H](Cc1ccc(O)cc1)C(=O)O` [Arphamenine B], for which, in series [1], the inhibition constant Ki was 20 nM.
For `CC(C)C[C@H](NC(=O)[C@@H](O)[C@H](N)Cc1ccccc1)C(=O)O` [Bestatin], the Ki in series [2] turned out to be 50 nM.
For `NC(N)=NCCC[C@H](N)C(=O)C[C@@H](Cc1ccccc1)C(=O)O` [Arphamenine A], the inhibitory constant (Ki) in series [3] stood at 20 nM.

B1: Aminopeptidase B (His-rAp-B) (Rattus norvegicus) (protein)
chain: MESSGPSSCHSAARRPLHSAQAVDVASASSFRAFEILHLHLDLRAEFGPPGPGPGSRGLNGKATLELRCLLPEGASELRLDSHSCLEVMAATLLRGQPGDQQQLTEPVPFHTQPFSHYGQALCVVFPKPCCAAERFRLELTYRVGEGPGVCWLAPEQTAGKKKPFVYTQGQAVLNRAFFPCFDTPAVKCTYSALVEVPDGFTAVMSASTWERRGPNKFFFQMSQPIPSYLIALAIGDLASAEVGPRSRVWAEPCLIEAAKEEYNGVIEEFLATGEKLFGPYVWGRYDLLFMPPSFPFGGMENPCLTFVTPCLLAGDRSLADVIIHEISHSWFGNLVTNANWGEFWLNEGFTMYAQRRISTILFGAAYTCLEAATGRALLRQHMDVSGEENPLNKLRVKIEPGVDPDDTYNETPYEKGYCFVSYLAHLVGDQEQFDKFLKAYVDEFKFQSILAEDFLEFYLEYFPELKKKGVDSIPGFEFNRWLNTPGWPPYLPDLSPGDSLMKPAEELAELWAASEPDMQAIEAVAISTWKTYQLVYFLDKILQKSPLPPGNVKKLGETYPKISNAQNAELRLRWGQIILKNDHQEEFWKVKDFLQSQGKQKYTLPLYHAMMGGSEMARTLAKETFSATASQLHSNVVNYVQQILAPKGS
notes: His-tagged full-length rat Ap-B (673 residues incl. His-tag/Factor Xa site; 650-residue Ap-B) from E. coli, Ni-NTA purified
What is called Km is the concentration of substrate that gives half-maximal velocity. In general, Vmax refers to the top rate of the reaction or transport when substrate is in excess. Broadly, the kcat is the maximal rate divided by the concentration of active sites. As a reminder, the kcat/Km is the turnover number divided by the Michaelis constant. As to B1, in the series “purified protein [4]”, the Km amounted to 135 ± 30 µM, the Vmax came out at 3.9 µM/min, the kcat was found to be 3 ± 0.35 s⁻¹ and the kcat/Km worked out at 22000 ± 2000 M⁻¹ s⁻¹. Moreover, in “purified protein [5]”, the Michaelis-Menten constant (Km) was 108 ± 13 µM, the Vmax was 8.76 µM/min, the kcat came to 20 ± 3 s⁻¹ and the kcat/Km is 185000 M⁻¹ s⁻¹.
